# Measured values as given in PMC12135382 (The Journal of Biological Chemistry, 2025).
# T1: GR W712A-LgBiT (human, UniProt P04150 1-777, W712A)
# T1 sequence: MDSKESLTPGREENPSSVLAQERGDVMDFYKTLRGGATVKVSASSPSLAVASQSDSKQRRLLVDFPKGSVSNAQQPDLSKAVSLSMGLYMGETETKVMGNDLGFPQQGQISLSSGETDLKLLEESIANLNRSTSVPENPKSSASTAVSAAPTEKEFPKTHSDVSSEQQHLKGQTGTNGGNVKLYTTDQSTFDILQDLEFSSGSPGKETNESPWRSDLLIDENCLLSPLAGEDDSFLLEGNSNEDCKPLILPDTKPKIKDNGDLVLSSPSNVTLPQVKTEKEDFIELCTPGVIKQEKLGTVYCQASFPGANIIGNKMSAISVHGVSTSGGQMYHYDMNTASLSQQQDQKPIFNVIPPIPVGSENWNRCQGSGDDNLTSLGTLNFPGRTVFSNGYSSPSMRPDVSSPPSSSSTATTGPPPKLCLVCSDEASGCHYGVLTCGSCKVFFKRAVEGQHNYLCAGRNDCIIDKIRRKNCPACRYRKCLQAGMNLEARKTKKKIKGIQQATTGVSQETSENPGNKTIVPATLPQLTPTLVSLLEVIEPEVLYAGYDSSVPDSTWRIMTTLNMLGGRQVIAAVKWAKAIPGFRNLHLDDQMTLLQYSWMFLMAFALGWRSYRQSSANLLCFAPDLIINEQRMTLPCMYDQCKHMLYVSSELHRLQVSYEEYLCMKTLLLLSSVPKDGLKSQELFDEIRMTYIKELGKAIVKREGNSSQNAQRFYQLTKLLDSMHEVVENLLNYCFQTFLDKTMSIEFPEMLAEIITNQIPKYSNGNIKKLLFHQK
# Target: T1, GR W712A-LgBiT
# Test: split reporter
binder,measurement,value
MR-SmBiT (mineralocorticoid receptor with C-terminal NanoBit small tag) (receptor) METKGYHSLPEGLDMERRWGQVSQAVERSSLGPTERTDENNYMEIVNVSCVSGAIPNNSTQGSSKEKQELLPCLQQDNNRPGILTSDIKTELESKELSATVAESMGLYMDSVRDADYSYEQQNQQGSMSPAKIYQNVEQLVKFYKGNGHRPSTLSCVNTPLRSFMSDSGSSVNGGVMRAVVKSPIMCHEKSPSVCSPLNMTSSVCSPAGINSVSSTTASFGSFPVHSPITQGTPLTCSPNVENRGSRSHSPAHASNVGSPLSSPLSSMKSSISSPPSHCSVKSPVSSPNNVTLRSSVSSPANINNSRCSVSSPSNTNNRSTLSSPAASTVGSICSPVNNAFSYTASGTSAGSSTLRDVVPSPDTQEKGAQEVPFPKTEEVESAISNGVTGQLNIVQYIKPEPDGAFSSSCLGGNSKINSDSSFSVPIKQESTKHSCSGTSFKGNPTVNPFPFMDGSYFSFMDDKDYYSLSGILGPPVPGFDGNCEGSGFPVGIKQEPDDGSYYPEASIPSSAIVGVNSGGQSFHYRIGAQGTISLSRSARDQSFQHLSSFPPVNTLVESWKSHGDLSSRRSDGYPVLEYIPENVSSSTLRSVSTGSSRPSKICLVCGDEASGCHYGVVTCGSCKVFFKRAVEGQHNYLCAGRNDCIIDKIRRKNCPACRLQKCLQAGMNLGARKSKKLGKLKGIHEEQPQQQQPPPPPPPPQSPEEGTTYIAPAKEPSVNTALVPQLSTISRALTPSPVMVLENIEPEIVYAGYDSSKPDTAENLLSTLNRLAGKQMIQVVKWAKVLPGFKNLPLEDQITLIQYSWMCLSSFALSWRSYKHTNSQFLYFAPDLVFNEEKMHQSAMYELCQGMHQISLQFVRLQLTFEEYTIMKVLLLLSTIPKDGLKSQAAFEEMRTNYIKELRKMVTKCPNNSGQSWQRFYQLTKLLDSMHDLVSDLLEFCFYTFRESHALKVEFPAMLVEIISDQLPKVESGNAKPLYFHRK,reconstituted luciferase activity relative to WT receptors,32%
